In article PMC5790771, “Reconstitution of Pure Chaperonin Hetero-Oligomer Preparations in Vitro by Temperature Modulation” (Frontiers in Molecular Biosciences, 2018):
Each block holds one binder with its values, some of them ahead of it.

B3: Cpn60β2 (At3g13470) (natural protein, A. thaliana, UniProt Q9LJE4 51-596, looked up)
chain: AAKELHFNKDGTTIRKLQTGVNKLADLVGVTLGPKGRNVVLESKYGSPRIVNDGVTVAREVELEDPVENIGAKLVRQAAAKTNDLAGDGTTTSVVLAQGFIAEGVKVVAAGANPVLITRGIEKTAKALVNELKLMSKEVEDSELADVAAVSAGNNHEVGSMIAEAMSKVGRKGVVTLEEGKSAENNLYVVEGMQFDRGYISPYFVTDSEKMSVEYDNCKLLLVDKKVTNARDLVGVLEDAIRGGYPILIIAEDIEQEALATLVVNKLRGTLKIAALKAPGFGERKSQYLDDIAILTGATVIREEVGLSLDKAGKEVLGNASKVVLTKEMTTIVGDGTTQEAVNKRVVQIRNLIEQAEQDYEKEKLNERIAKLSGGVAVIQVGAQTETELKEKKLRVEDALNATKAAVEEGIVVGGGCTLLRLASKVDAIKDTLENDEEKVGAEIVKRALSYPLKLIAKNAGVNGSVVSEKVLANDNVKFGYNAATGKYEDLMAAGIIDPTKVVRCCLEHAASVAKTFLMSDCVVVEIPEPEPVPAGNPMDNSGYGY
notes: Cpn60β2, chloroplast chaperonin 60 beta subunit of A. thaliana, At3g13470; also called β2 Cpn60; source: purified by a previously published protocol (Vitlin et al., 2011)

Legend:
[1] = biological target: the molecule itself; experiment: cross-linking; 20 μM purified protein, 0.1% glutaraldehyde, room temperature, 50 mM Na-HEPES (pH 8 in the legend, 7.5 in the methods), 10 mM MgCl2, 100 mM KCl; SDS-PAGE on a 2.4-12% gradient gel, Coomassie
[2] = biological target: B3; experiment: SEC; 150 μM α2, 100 μM β2 and 50 μM mt-cpn10 reconstituted with Mg-ATP (2 ml), Superdex 200 run at 4°C in 50 mM Tris-HCl pH 8, 300 mM NaCl, 5% glycerol; fractions on SDS-PAGE; details: both partners purified
[3] = biological target: T1, Cpn60β3 (At1g55490) (A. thaliana, UniProt P21240 55-600); experiment: native gel or EMSA; reconstitution: 150 μM Cpn60α2 with 100 μM Cpn60β and 50 μM Cpn10 (GroES, mt-cpn10, Cpn20 or Cpn10(2)); 50 mM Tris-HCl pH 8, 0.3 M NaCl, 10 mM MgCl2, 16 mM KCl, 2 mM DTT, 5 mM ATP; 5 min at room temperature, 1 h at 30°C; 6% native polyacrylamide gel; details: both partners purified
T1 construct: Cpn60β3, chloroplast chaperonin 60 beta subunit of A. thaliana, At1g55490; also called β3 Cpn60; source: purified by a previously published protocol (Vitlin et al., 2011)
T1 sequence (P21240 55-600): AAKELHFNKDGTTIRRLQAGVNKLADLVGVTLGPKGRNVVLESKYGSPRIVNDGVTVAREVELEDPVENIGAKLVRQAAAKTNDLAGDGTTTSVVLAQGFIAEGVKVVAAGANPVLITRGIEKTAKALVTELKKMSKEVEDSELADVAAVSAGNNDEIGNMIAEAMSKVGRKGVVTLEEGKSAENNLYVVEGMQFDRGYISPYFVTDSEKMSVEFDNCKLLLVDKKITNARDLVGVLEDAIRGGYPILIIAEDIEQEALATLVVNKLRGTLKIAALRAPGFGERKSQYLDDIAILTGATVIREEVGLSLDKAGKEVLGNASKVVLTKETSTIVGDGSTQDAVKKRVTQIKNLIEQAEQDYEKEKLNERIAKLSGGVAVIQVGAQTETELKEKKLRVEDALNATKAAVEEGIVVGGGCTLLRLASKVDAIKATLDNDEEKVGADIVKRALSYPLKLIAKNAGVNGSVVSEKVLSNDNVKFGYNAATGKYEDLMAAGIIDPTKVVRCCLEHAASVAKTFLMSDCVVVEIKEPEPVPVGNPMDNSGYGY

[4] = biological target: the molecule itself; experiment: SEC; 300 μM β2 and 150 μM mt-cpn10 reconstituted with Mg-ATP (600 μl), Superdex 200 run at room temperature; fractions on SDS-PAGE

B1: Cpn60α1 (At5g18820) (natural protein)
chain: not shown
notes: additional glycine-serine at the N-terminus, left by the cloning (printed in words); Cpn60α1, chloroplast chaperonin 60 alpha subunit of A. thaliana, At5g18820; 543 residues without the putative transit peptide; The vector codes for an octa-histidine tag followed by a TEV site at the amino terminus; also called α1 Cpn60; Cpn60α1 subunit; source: E. coli Rosetta (Novagen), purified based on the …
- stoichiometry N [1]: 2

- binding result [2]: binds
- binding result [3]: binds
B2: Cpn60α2 (At2g28000) (natural protein)
chain: not shown
notes: additional glycine-serine at the N-terminus, left by the cloning (printed in words); Cpn60α2, chloroplast chaperonin 60 alpha subunit of A. thaliana, At2g28000; 541 residues without the putative transit peptide; The vector codes for an octa-histidine tag followed by a TEV site at the amino terminus; also called α2 Cpn60; Cpn60α2 subunit; source: E. coli Rosetta (Novagen), purified based on the …

Binder: B3
- binding result [4]: binds
